{"source": "patent US20130330328A1", "about": "(AstraZeneca / MedImmune, published 2013)", "molecules": {"B1": {"name": "afucosylated anti-CD19 mAb 16C4 (16C4-afuc) (antibody, IgG1, V domains shown)", "VH": "EVQLVESGGGLVQPGGSLRLSCAASGFTFSSSWMNWVRQAPGKGLEWVGRIYPGDGDTNYNVKFKGRFTISRDDSKNSLYLQMNSLKTEDTAVYYCARSGFITTVRDFDYWGQGTLVTVSS", "VL": "EIVLTQSPDFQSVTPKEKVTITCRASESVDTFGISFINWFQQKPDQSPKLLIHEASNQGSGVPSRFSGSGSGTDFTLTINSLEAEDAATYYCQQTKEVPFTFGGGTKVEIK"}}, "key": {"[1]": {"target": "human CD20 (human) (UniProt P11836)", "sequence (P11836 whole entry)": "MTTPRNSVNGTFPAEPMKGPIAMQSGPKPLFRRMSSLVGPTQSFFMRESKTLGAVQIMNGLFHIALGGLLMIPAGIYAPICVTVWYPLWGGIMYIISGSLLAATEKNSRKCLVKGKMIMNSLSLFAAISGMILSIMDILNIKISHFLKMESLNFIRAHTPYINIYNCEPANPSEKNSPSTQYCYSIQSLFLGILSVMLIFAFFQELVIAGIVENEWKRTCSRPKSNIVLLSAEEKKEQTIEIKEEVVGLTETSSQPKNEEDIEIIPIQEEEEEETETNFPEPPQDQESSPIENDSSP", "assay": "flow cytometry, direct binding to Toledo (DLCL) cells, labeled goat anti-human secondary"}, "[2]": {"target": "human CD20 (human) (UniProt P11836)", "assay": "flow cytometry, direct binding to Granta-519 (NHL/MCL) cells, labeled goat anti-human secondary"}, "[3]": {"target": "human CD20 (human) (UniProt P11836)", "assay": "flow cytometry, direct binding to Nalm-6 (ALL) cells, labeled goat anti-human secondary"}, "[4]": {"target": "human CD20 (human) (UniProt P11836)", "assay": "flow cytometry, direct binding to JVM-13 (CLL) cells, labeled goat anti-human secondary"}, "[5]": {"target": "human CD20 (human) (UniProt P11836)", "assay": "flow cytometry, direct binding to Raji (Burkitt) cells, labeled goat anti-human secondary"}, "[6]": {"target": "human CD20 (human) (UniProt P11836)", "assay": "flow cytometry, direct binding to Namalwa (Burkitt) cells, labeled goat anti-human secondary"}, "[7]": {"target": "human CD20 (human) (UniProt P11836)", "assay": "flow cytometry, direct binding to Karpas-422 (NHL) cells, labeled goat anti-human secondary"}, "[8]": {"target": "human CD20 (human) (UniProt P11836)", "assay": "flow cytometry, direct binding to Farage (DLCL) cells, labeled goat anti-human secondary"}, "[9]": {"target": "human CD20 (human) (UniProt P11836)", "assay": "cell-based or functional assay"}, "[10]": {"target": "T1, human CD19 (human, UniProt P15391 20-556)", "T1 sequence (looked up)": "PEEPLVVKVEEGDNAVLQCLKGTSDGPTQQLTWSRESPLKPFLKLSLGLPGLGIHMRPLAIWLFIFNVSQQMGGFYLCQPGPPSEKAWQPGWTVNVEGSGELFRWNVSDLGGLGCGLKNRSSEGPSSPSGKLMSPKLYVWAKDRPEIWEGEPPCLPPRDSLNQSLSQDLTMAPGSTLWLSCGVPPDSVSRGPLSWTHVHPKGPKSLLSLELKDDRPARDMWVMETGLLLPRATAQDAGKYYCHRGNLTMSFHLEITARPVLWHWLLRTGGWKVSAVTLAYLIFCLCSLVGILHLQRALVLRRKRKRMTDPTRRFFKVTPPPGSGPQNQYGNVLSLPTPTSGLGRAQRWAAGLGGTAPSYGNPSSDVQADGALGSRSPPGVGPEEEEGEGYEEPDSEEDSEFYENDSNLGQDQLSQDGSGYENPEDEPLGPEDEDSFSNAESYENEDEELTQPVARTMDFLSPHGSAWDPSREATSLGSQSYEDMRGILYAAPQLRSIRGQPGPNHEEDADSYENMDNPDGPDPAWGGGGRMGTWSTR", "assay": "cell-based or functional assay"}}, "data": [{"molecule": "rituximab (antibody)", "values": [{"measurement": "MFI at 1 µg/ml", "setting": "[1]", "result": 312, "unit": "MFI"}, {"measurement": "MFI at 1 µg/ml", "setting": "[2]", "result": 403, "unit": "MFI"}, {"measurement": "MFI at 1 µg/ml", "setting": "[3]", "result": 26, "unit": "MFI"}, {"measurement": "MFI at 1 µg/ml", "setting": "[4]", "result": 60, "unit": "MFI"}, {"measurement": "MFI at 1 µg/ml", "setting": "[5]", "result": 823, "unit": "MFI"}, {"measurement": "MFI at 1 µg/ml", "setting": "[6]", "result": 298, "unit": "MFI"}, {"measurement": "MFI at 1 µg/ml", "setting": "[7]", "result": 45, "unit": "MFI"}, {"measurement": "MFI at 1 µg/ml", "setting": "[8]", "result": 581, "unit": "MFI"}, {"measurement": "% max. cell kill at 10 ug/ml, DB (DLCL) cells", "setting": "[9]", "result": 46, "unit": "%"}, {"measurement": "% max. cell kill at 10 ug/ml, Daudi (Burkitt) cells", "setting": "[9]", "result": 51, "unit": "%"}, {"measurement": "% max. cell kill at 10 ug/ml, Farage (DLCL) cells", "setting": "[9]", "result": 54, "unit": "%"}, {"measurement": "% max. cell kill at 10 ug/ml, JVM-2 (CLL) cells", "setting": "[9]", "result": 49, "unit": "%"}, {"measurement": "% max. cell kill at 10 ug/ml, JVM-13 (CLL) cells", "setting": "[9]", "result": 50, "unit": "%"}, {"measurement": "% max. cell kill at 10 ug/ml, Karpas-422 (NHL) cells", "setting": "[9]", "result": 5, "unit": "%"}, {"measurement": "% max. cell kill at 10 ug/ml, MeC2 (CLL) cells", "setting": "[9]", "result": 42, "unit": "%"}, {"measurement": "% max. cell kill at 10 ug/ml, Nalm-6 (ALL) cells", "setting": "[9]", "result": 14, "unit": "%"}, {"measurement": "% max. cell kill at 10 ug/ml, Namalwa (Burkitt) cells", "setting": "[9]", "result": 7, "unit": "%"}, {"measurement": "% max. cell kill at 10 ug/ml, Raji (Burkitt) cells", "setting": "[9]", "result": 40, "unit": "%"}, {"measurement": "% max. cell kill at 10 ug/ml, Toledo (DLCL) cells", "setting": "[9]", "result": 55, "unit": "%"}, {"measurement": "ADCC EC50 [ng/ml], DB (DLCL) cells", "setting": "[9]", "result": 0.24, "unit": "ng/mL"}, {"measurement": "ADCC EC50 [ng/ml], Daudi (Burkitt) cells", "setting": "[9]", "result": 0.041, "unit": "ng/mL"}, {"measurement": "ADCC EC50 [ng/ml], Farage (DLCL) cells", "setting": "[9]", "result": 0.0113, "unit": "ng/mL"}, {"measurement": "ADCC EC50 [ng/ml], JVM-2 (CLL) cells", "setting": "[9]", "result": 0.0586, "unit": "ng/mL"}, {"measurement": "ADCC EC50 [ng/ml], JVM-13 (CLL) cells", "setting": "[9]", "result": 0.0317, "unit": "ng/mL"}, {"measurement": "ADCC EC50 [ng/ml], Karpas-1106P cells", "setting": "[9]", "result": 0.0137, "unit": "ng/mL"}, {"measurement": "ADCC EC50 [ng/ml], MeC2 (CLL) cells", "setting": "[9]", "result": 0.007, "unit": "ng/mL"}, {"measurement": "ADCC EC50 [ng/ml], RL (NHL) cells", "setting": "[9]", "result": 0.0296, "unit": "ng/mL"}, {"measurement": "ADCC EC50 [ng/ml], Raji (Burkitt) cells", "setting": "[9]", "result": 0.008, "unit": "ng/mL"}, {"measurement": "ADCC EC50 [ng/ml], Toledo (DLCL) cells", "setting": "[9]", "result": 0.0319, "unit": "ng/mL"}, {"measurement": "EC50, FACS-based ADCC assay with patient CLL samples", "setting": "[9]", "result": "0.639 to 0.682", "unit": "nM"}]}, {"molecule": "B1", "values": [{"measurement": "ADCC EC50 [ng/ml], Daudi (Burkitt) cells", "setting": "[10]", "result": 0.0031, "unit": "ng/mL"}, {"measurement": "ADCC EC50 [ng/ml], Farage (DLCL) cells", "setting": "[10]", "result": 0.0141, "unit": "ng/mL"}, {"measurement": "ADCC EC50 [ng/ml], JVM-2 (CLL) cells", "setting": "[10]", "result": 0.188, "unit": "ng/mL"}, {"measurement": "ADCC EC50 [ng/ml], JVM-13 (CLL) cells", "setting": "[10]", "result": 0.0368, "unit": "ng/mL"}, {"measurement": "ADCC EC50 [ng/ml], Karpas-422 (NHL) cells", "setting": "[10]", "result": 0.0181, "unit": "ng/mL"}, {"measurement": "ADCC EC50 [ng/ml], Karpas-1106P cells", "setting": "[10]", "result": 0.009, "unit": "ng/mL"}, {"measurement": "ADCC EC50 [ng/ml], MeC2 (CLL) cells", "setting": "[10]", "result": 0.0039, "unit": "ng/mL"}, {"measurement": "ADCC EC50 [ng/ml], Nalm-6 (ALL) cells", "setting": "[10]", "result": 0.0199, "unit": "ng/mL"}, {"measurement": "ADCC EC50 [ng/ml], Namalwa (Burkitt) cells", "setting": "[10]", "result": 0.012, "unit": "ng/mL"}, {"measurement": "ADCC EC50 [ng/ml], Oci-LY19 (DLCL) cells", "setting": "[10]", "result": 0.0163, "unit": "ng/mL"}, {"measurement": "ADCC EC50 [ng/ml], RL (NHL) cells", "setting": "[10]", "result": 0.0073, "unit": "ng/mL"}, {"measurement": "ADCC EC50 [ng/ml], Raji (Burkitt) cells", "setting": "[10]", "result": 0.003, "unit": "ng/mL"}, {"measurement": "ADCC EC50 [ng/ml], Toledo (DLCL) cells", "setting": "[10]", "result": 0.0075, "unit": "ng/mL"}]}]}
